Measured values: PMC10786891, “Massively parallel profiling of RNA-targeting CRISPR-Cas13d”
Numbering of substitutions follows the chain as printed. In names and notes the source's numbering stands.

T1: EsCas13d, nuclease-dead (Eubacterium siraeum, UniProt B0MS50, R295A;H300A;R849A;H854A)
T1 sequence: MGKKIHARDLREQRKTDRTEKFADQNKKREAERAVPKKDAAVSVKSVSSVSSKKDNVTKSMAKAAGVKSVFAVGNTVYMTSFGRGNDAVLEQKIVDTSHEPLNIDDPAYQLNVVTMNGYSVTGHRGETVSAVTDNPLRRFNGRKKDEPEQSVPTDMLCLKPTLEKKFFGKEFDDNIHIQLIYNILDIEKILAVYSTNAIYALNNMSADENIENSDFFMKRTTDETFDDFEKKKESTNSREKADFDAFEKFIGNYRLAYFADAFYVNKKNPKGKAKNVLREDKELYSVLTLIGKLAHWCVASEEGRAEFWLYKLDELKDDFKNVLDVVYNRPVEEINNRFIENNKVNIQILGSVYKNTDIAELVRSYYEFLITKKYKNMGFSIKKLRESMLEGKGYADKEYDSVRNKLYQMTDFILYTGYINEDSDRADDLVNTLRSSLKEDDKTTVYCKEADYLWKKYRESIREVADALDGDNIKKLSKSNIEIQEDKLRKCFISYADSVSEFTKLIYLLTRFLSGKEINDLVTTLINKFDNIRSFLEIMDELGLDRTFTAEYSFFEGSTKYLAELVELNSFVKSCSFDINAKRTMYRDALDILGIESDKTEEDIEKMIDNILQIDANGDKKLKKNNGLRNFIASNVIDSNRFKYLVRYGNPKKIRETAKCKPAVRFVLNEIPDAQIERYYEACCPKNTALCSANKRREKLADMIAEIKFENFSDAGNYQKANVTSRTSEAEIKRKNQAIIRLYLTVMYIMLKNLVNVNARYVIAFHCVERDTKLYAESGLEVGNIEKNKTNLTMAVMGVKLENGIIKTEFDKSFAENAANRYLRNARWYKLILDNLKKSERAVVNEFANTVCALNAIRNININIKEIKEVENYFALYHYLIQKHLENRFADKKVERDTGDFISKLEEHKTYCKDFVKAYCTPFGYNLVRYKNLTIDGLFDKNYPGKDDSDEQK

B1: target 1 A1U,G17U (mixed)
RNA 1: CACCCGUGCAAAAAUGCAGGGGUCUAAAACUGAGCGGAUAACCUCUCUAUGG
RNA 2: GGGAAUGGAUCCACAUCUACGAAUUCGUACCAUAUAGAGGUUAUCCGCUCUCCGAGAUCGGAAGAGCACACGU
B2: target 1 del14,del19 (mixed)
RNA 1: B1 RNA 1
RNA 2: GGGAAUGGAUCCACAUCUACGAAUUCGUACCAAGAGGGUUAUCCGCUCACCGAGAUCGGAAGAGCACACGU
B3: target 1 insC 3' of 22,insG 3' of 19 (mixed)
RNA 1: B1 RNA 1
RNA 2: GGGAAUGGAUCCACAUCUACGAAUUCGUACCCAUGAGAGAGGUUAUCCGCUCACCGAGAUCGGAAGAGCACACGU
B4: target 1 insA 3' of 22,insA 3' of 19 (mixed)
RNA 1: B1 RNA 1
RNA 2: B3 RNA 2 with C31A, G35A
B5: target 3 U2G,G14A (mixed)
RNA 1: CACCCGUGCAAAAUUGCAGGGGUCUAAAACGACCUGAAUAUUUCAGAUCAAA
RNA 2: GGGAAUGGAUCCACAUCUACGAAUUCGUUUUUGAUCUAAAAUAUUCAGGGCUGCAGAUCGGAAGAGCACACGU
B6: target 3 G3U,A18G (mixed)
RNA 1: B5 RNA 1
RNA 2: B5 RNA 2 with A34G, A38G, G49U, G50U
B7: target 3 insA 3' of 21,insG 3' of 5 (mixed)
RNA 1: B5 RNA 1
RNA 2: GGGAAUGGAUCCACAUCUACGAAUUCGUUUUAUGAUCUGAAAUAUUCAGGGUCUGCAGAUCGGAAGAGCACACGU
B8: target 3 insC 3' of 5,insU 3' of 4 (mixed)
RNA 1: B5 RNA 1
RNA 2: GGGAAUGGAUCCACAUCUACGAAUUCGUUUUUGAUCUGAAAUAUUCACGUGUCUGCAGAUCGGAAGAGCACACGU
B9: target 3 G4A,C6A (mixed)
RNA 1: B5 RNA 1
RNA 2: B5 RNA 2 with A38G, C46A, G48A, G50U
B10: target 3 insU 3' of 4,insG 3' of 2 (mixed)
RNA 1: B5 RNA 1
RNA 2: B8 RNA 2 with C48G, G49U, U50G, G51U, U52G
B11: target 3 insU 3' of 22,insU 3' of 1 (mixed)
RNA 1: B5 RNA 1
RNA 2: B7 RNA 2 with A32U, G51U, U52C, C53U
B12: target 3 insA 3' of 21,insU 3' of 6 (mixed)
RNA 1: B5 RNA 1
RNA 2: B7 RNA 2 with A48U, G49A
B13: target 3 insU 3' of 11,insA 3' of 7 (mixed)
RNA 1: B5 RNA 1
RNA 2: B8 RNA 2 with A43U, U44A, C46U, G49A, U50G
B14: target 3 A12C,U22A (mixed)
RNA 1: B5 RNA 1
RNA 2: B5 RNA 2 with U30A, A38G, A40C, G50U
B15: target 3 insA 3' of 8,insC 3' of 7 (mixed)
RNA 1: B5 RNA 1
RNA 2: B8 RNA 2 with U45A, C46U, A47C, G49A, U50G
B16: target 3 U7G,U8G (mixed)
RNA 1: B5 RNA 1
RNA 2: B5 RNA 2 with A38G, U44G, U45G, G50U
B17: target 3 insA 3' of 6,insC 3' of 2 (mixed)
RNA 1: B5 RNA 1
RNA 2: B8 RNA 2 with C48A, U50G, G51U, U52C
B18: target 3 G4A,G19U (mixed)
RNA 1: B5 RNA 1
RNA 2: B5 RNA 2 with G33U, A38G, G48A, G50U
B19: target 3 U8G,A18G (mixed)
RNA 1: B5 RNA 1
RNA 2: B5 RNA 2 with A34G, A38G, U44G, G50U
B20: target 3 U8A,U22A (mixed)
RNA 1: B5 RNA 1
RNA 2: B5 RNA 2 with U30A, A38G, U44A, G50U
B21: target 3 insA 3' of 22,insA 3' of 6 (mixed)
RNA 1: B5 RNA 1
RNA 2: B7 RNA 2 with U31A, A32U, G49A
B22: target 3 insC 3' of 8,insU 3' of 6 (mixed)
RNA 1: B5 RNA 1
RNA 2: B8 RNA 2 with U45C, C46U, A47C, C48U, G49A, U50G
B23: target 3 insC 3' of 8,insG 3' of 8 (mixed)
RNA 1: B5 RNA 1
RNA 2: B8 RNA 2 with U45C, C46G, A47U, G49A, U50G
B24: target 3 A18G,U21A (mixed)
RNA 1: B5 RNA 1
RNA 2: B5 RNA 2 with U31A, A34G, A38G, G50U
B25: target 3 insG 3' of 1 (mixed)
RNA 1: B5 RNA 1
RNA 2: GGGAAUGGAUCCACAUCUACGAAUUCGUUUUUGAUCUGAAAUAUUCAGGUCGUGCAGAUCGGAAGAGCACACGU
B26: target 3 complement block 2-7 (mixed)
RNA 1: B5 RNA 1
RNA 2: B5 RNA 2 with A38G, U45A, C46G, A47U, G48C, G49C, G50A
B27: target 3 insG 3' of 9,insC 3' of 4 (mixed)
RNA 1: B5 RNA 1
RNA 2: B8 RNA 2 with U44G, C46U, A47C, C48A, U50C
B28: target 3 G3A,C6U (mixed)
RNA 1: B5 RNA 1
RNA 2: B5 RNA 2 with A38G, C46U, G49A, G50U
B29: target 3 insG 3' of 11,insU 3' of 3 (mixed)
RNA 1: B5 RNA 1
RNA 2: B8 RNA 2 with U42G, A43U, U44A, C46U, A47C, C48A, U50G, G51U
B30: target 3 insU 3' of 1,insG 3' of 1 (mixed)
RNA 1: B5 RNA 1
RNA 2: B8 RNA 2 with C48G, G51C, C53G
B31: target 3 insU 3' of 1 (mixed)
RNA 1: B5 RNA 1
RNA 2: B25 RNA 2 with G52U
B32: target 3 U8C,A18G (mixed)
RNA 1: B5 RNA 1
RNA 2: B5 RNA 2 with A34G, A38G, U44C, G50U
B33: target 3 insU 3' of 22,insC 3' of 2 (mixed)
RNA 1: B5 RNA 1
RNA 2: B7 RNA 2 with A32U, G51U, U52C

Molecular target: T1, EsCas13d, nuclease-dead
Experiment: crRNA (strand 1, pre-loaded); Mg2+; 40 mM Tris-HCl pH 7.5, 150 mM NaCl, 6 mM MgCl2, 1 mM DTT, 0.1% Tween-20, 0.2 mg/ml BSA; 25 C; 10 min per concentration, then washed
Conditions: tags: His6-TwinStrep-SUMO cleaved; N-terminal SNAP kept (SNAP-Surface 488); label: 3' end held by stalled T7 RNA polymerase

Row | Binder | Kd [nM]
1 | B1 | 18.8 ± 1.5
2 | B2 | 79 ± 25
3 | B3 | 64 ± 15
4 | B4 | 38 ± 4
5 | B5 | 106 ± 42
6 | B6 | 34.4 ± 3.25
7 | B7 | 71 ± 33.5
8 | B8 | 9.85 ± 0.85
9 | B9 | 23.8 ± 2.65
10 | B10 | 19.5 ± 2.35
11 | B11 | 77.5 ± 17.5
12 | B12 | 84 ± 25.5
13 | B13 | 100 ± 20.5
14 | B14 | 71 ± 26
15 | B15 | 67.5 ± 8
16 | B16 | 48.5 ± 9
17 | B17 | 35 ± 9

Row | Binder | Kd [nM]
18 | B18 | 98.5 ± 19.5
19 | B19 | 72.5 ± 14.5
20 | B20 | 110 ± 38.5
21 | B21 | 11.1 ± 0.85
22 | B22 | 78 ± 11.5
23 | B23 | 79 ± 15.5
24 | B24 | 57.5 ± 10
25 | B25 | 44.5 ± 9.5
26 | B26 | 54.5 ± 7
27 | B27 | ~102
28 | B28 | 42 ± 5
29 | B29 | 96 ± 21.5
30 | B30 | 20.4 ± 2.25
31 | B31 | 85.5 ± 18.5
32 | B32 | 55.5 ± 4.5
33 | B33 | 76.5 ± 24.5
